Source: FireProtDB (doi:10.1021/bi012042l)

Conditions: Rattus norvegicus; pH 7.3; 20 °C; GdnHCl; Fluorescence; potassium phosphate 20 mM; whole UniProt chain shown

B1: Fatty acid-binding protein, intestinal wild type, P02693 (protein)
chain: MAFDGTWKVDRNENYEKFMEKMGINVVKRKLGAHDNLKLTITQEGNKFTVKESSNFRNIDVVFELGVDFAYSLADGTELTGTWTMEGNKLVGKFKRVDNGKELIAVREISGNELIQTYTYEGVEAKRIFKKE
  denaturant midpoint (higher = more stable): 1.4 M
  unfolding free energy: 5 kcal/mol
